Key:
Details in all cases: 10 mM ATP, 14 mM MgCl2, 100 mM KCl, pH 8.0, 25 °C
[1] = system: NNC(=O)CC[C@H](N)C(=O)O; assay: purified protein
[2] = system: N[C@@H](CCC(=O)NO)C(=O)O; assay: purified protein
[3] = system: NC(=O)CC[C@@H](N)C(=O)O; assay: purified protein
[4] = biological target: Cj1418 (L-glutamine kinase) (Campylobacter jejuni, UniProt Q0P8J6)
Chain of Cj1418 (L-glutamine kinase) (Q0P8J6 whole entry): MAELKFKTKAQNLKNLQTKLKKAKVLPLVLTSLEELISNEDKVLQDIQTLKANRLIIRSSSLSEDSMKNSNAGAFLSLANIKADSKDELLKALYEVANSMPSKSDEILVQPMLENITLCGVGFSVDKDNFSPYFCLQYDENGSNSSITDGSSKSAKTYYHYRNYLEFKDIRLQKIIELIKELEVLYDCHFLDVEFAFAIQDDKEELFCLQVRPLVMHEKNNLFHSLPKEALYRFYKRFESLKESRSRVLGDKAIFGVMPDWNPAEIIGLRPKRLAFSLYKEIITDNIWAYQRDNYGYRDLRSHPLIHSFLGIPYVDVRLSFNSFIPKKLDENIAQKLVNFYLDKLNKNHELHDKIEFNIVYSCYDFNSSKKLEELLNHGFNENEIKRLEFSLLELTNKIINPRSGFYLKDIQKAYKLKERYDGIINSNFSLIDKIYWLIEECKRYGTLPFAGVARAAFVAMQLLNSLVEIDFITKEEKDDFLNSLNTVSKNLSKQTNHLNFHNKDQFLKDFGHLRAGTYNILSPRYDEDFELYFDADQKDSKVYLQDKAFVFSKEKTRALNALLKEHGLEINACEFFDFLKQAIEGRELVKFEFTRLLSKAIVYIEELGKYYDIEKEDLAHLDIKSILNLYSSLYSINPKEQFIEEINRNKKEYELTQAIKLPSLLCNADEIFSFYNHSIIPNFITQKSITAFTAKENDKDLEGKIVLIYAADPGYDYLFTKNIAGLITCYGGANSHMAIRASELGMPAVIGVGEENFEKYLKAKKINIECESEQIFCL

Compound	Km [1] [µM]	kcat [1] [s⁻¹]	kcat/Km [1] [M⁻¹ s⁻¹]	Km [2] [µM]	kcat [2] [s⁻¹]	kcat/Km [2] [M⁻¹ s⁻¹]	Km [3] [µM]	kcat [3] [s⁻¹]	kcat/Km [3] [M⁻¹ s⁻¹]	Km [4] [µM]
Cj1418 (L-glutamine kinase) (Campylobacter jejuni subsp. jejuni NCTC 11168 = ATCC 700819)	17200 ± 3800	0.41 ± 0.05	24 ± 6	1500 ± 400	2.1 ± 0.2	1400 ± 360	10500 ± 1800	1.5 ± 0.1	140 ± 30	
NC(=O)CC[C@H](N)C(=O)O [compound 1, L-glutamine]										640 ± 60
